Test results reported in patent US20210332115A1 (Sanofi, published 2021).

Tests used:
[1] = molecular target: T1, Homo sapiens factor Bb protein (human, UniProt P00751 260-764); experiment: cell-based or functional assay
[2] = molecular target: T1, Homo sapiens factor Bb protein; experiment: SPR single cycle kinetics; ratio against VH0/Vκ0
Experimental: All single cycle kinetic experiments were run at 25° C. with HBS-P+running buffer (pH 7. 4) (GE Healthcare, Little Chalfont, UK).
(§1) Antibodies were diluted in running buffer to a final concentration of 1 μg/ml, based on concentrations assessed by ELISA titer. At the start of each cycle, antibodies were loaded onto Fc2, Fc3 and Fc4 of the Protein A chip (GE Healthcare, Little Chalfont, UK). IgGs were captured at a flow rate of 10 μl/min to give an immobilization level (RL) of ˜63 RU, the theoretical value to obtain an Rmax of ˜50 RU. The surface was then allowed to stabilize. Single cycle kinetic data was obtained with factor Bb (CompTech, Tyler, USA) as the analyte at a flow rate of 30 μl/min to minimize any potential mass transport limitations. Multiple repeats with the reference chimeric antibody were performed to check the stability of the surface and analyte over the kinetic cycles. The signal from the reference channel Fc1 (no antibody) was subtracted from that of Fc2, Fc3 and Fc4 to correct for differences in non-specific binding to a reference surface. A four point, two-fold dilution range from 0. 78 nM to 6. 25 nM factor Bb without regeneration between each concentration was used. The association phase for the four injections of increasing concentrations of factor Bb was monitored for 200 seconds each time and a single dissociation phase was measured for 200 seconds following the last injection of factor Bb. Regeneration of the Protein A surface was conducted using two injections of 10 mM glycine-HCL pH 1. 5.
Single cycle kinetics using cell culture supernatants were performed as described above. […] The relative KD was calculated by dividing the KD of the VH0/Vκ0 reference antibody by that of the humanized variant assayed in the same experiment.

[3] = molecular target: T1, Homo sapiens factor Bb protein; experiment: BLI Octet, biotinylated antibody on SA biosensors
Experimental: (§2) Briefly, biotinylated antibodies were loaded onto SA Biosensors equilibrated in PBS, 0.1% BSA, 0.02% Tween-20 (assay buffer). After a 60 second baseline in assay buffer, antibodies were loaded onto the probes for 180 seconds, followed by another 60 second baseline. Association to human (Comptech) or cynomolgus monkey factor Bb (purified in-house) was measured for 300 seconds, followed by a 300 second dissociation. Kinetic parameters were calculated by the Octet Analysis software using a 1:1 binding model.

[4] = molecular target: T1, Homo sapiens factor Bb protein; experiment: BLI Octet, biotinylated antibody on SA biosensors; remark: listed apart in the source
Experimental: as §2
To determine whether the modification of the Fc portion of the antibodies affected affinity and species cross-reactivity, VH4/VK6-IgG4v2 and VH6/VK7-IgG4v2 were tested alongside their parental antibodies, VH4/VK6 and VH6/VK7, respectively, for their ability to bind human and cynomolgus monkey factor Bb by BLI. VH4/VK6-IgG4v2 and VH6/VK7-IgG4v2 contain mutations in the Fc region that increase the affinity for an Fc receptor.

[5] = molecular target: T1, Homo sapiens factor Bb protein; experiment: SPR multi-cycle kinetics; ratio against VH0/Vκ0 on the same chip
Experimental: (§3) Antibodies were diluted in running buffer to a final concentration of 0.5 μg/ml. At the start of each cycle, antibodies were loaded onto Fc2, Fc3 and Fc4 of the Protein A chip (GE Healthcare, Little Chalfont, UK). IgGs were captured at a flow rate of 10 μl/min to give an immobilisation level (RL) of ˜63 RU, the theoretical value to obtain an Rmax of ˜50 RU. The surface was then allowed to stabilize. Kinetic data was obtained with factor Bb as analyte and using a flow rate of 30 μl/min to minimize any potential mass transfer effects. Multiple repeats of a blank and a repeat of a single concentration of the analyte were programmed into the kinetic run in order to check the stability of both the surface and analyte over the kinetic cycles. For kinetic analysis, a two-fold dilution range was selected from 12. 5 nM to 0. 391 nM factor Bb. The association phase of factor Bb was monitored for 360 seconds and the dissociation phase was monitored for 600 seconds. Regeneration of the Protein A surface was conducted using two injections of 10 mM glycine-HCL pH 1. 5. The signal from the reference channel Fc1 was subtracted from that of Fc2, Fc3 and Fc4 to correct for differences in non-specific binding to a reference surface, and a global Rmax parameter was used in the 1-to-1 binding model.
(§4) The sensorgrams and fitted data for the binding of chimeric antibodies and humanized variants to factor Bb are shown in FIGS. 4A-4C. The relative KD was calculated by dividing the KD of the humanized variants by that of the chimeric antibody on the same chip. The kinetic parameters measured for the interaction of factor Bb with chimeric antibodies and humanized variants are shown in Table 10.

[6] = molecular target: T1, Homo sapiens factor Bb protein; experiment: SPR multi-cycle kinetics, IgG on Protein A chip, factor Bb analyte
Experimental: as §3, §4

[7] = molecular target: T1, Homo sapiens factor Bb protein; experiment: SPR single cycle kinetics, IgG on Protein A chip, factor Bb analyte
Experimental: In order to assess the binding of all humanized variants, single cycle kinetic analysis was performed on supernatants from transfected cell cultures. […] All single cycle kinetic experiments were run at 25° C. with HBS-P+running buffer (pH 7. 4) (GE Healthcare, Little Chalfont, UK).
as §1
Single cycle kinetics using cell culture supernatants were performed as described above.

[8] = molecular target: T1, Homo sapiens factor Bb protein; experiment: competition ELISA on coated factor Bb; competitor murine parental antibody
Experimental: Factor Bb was diluted in 1× PBS to 1.0 μg/ml and 100 μl/well was coated overnight at 4° C. on a 96-well ELISA plate. The following day the plates were blocked for two hours at room temperature with 1% casein/PBS before washing 2× with PBS pH 7.4. In a 96-well dilution plate a fixed concentration of murine parental antibody (0.5 μg/ml, final concentration) was added in equal volume to a four-fold titration series of test antibody (starting from 45 μg/ml to 0.01 μg/ml, final concentration) diluted in blocking buffer. After washing the plate 3× with PBS-T, 100 μl of chimeric/test antibody mix was added to the ELISA plate. After incubating at room temperature for one hour, the plate was washed 3× with PBS-T and 100 μl of anti-mouse IgG Fc-Specific HRP (Sigma, Dorset, UK) diluted 1:1000 in PBS-T was applied for one hour at room temperature to detect bound mouse antibody. For color development, the plate was washed 3× with PBS-T following which 100 μl of TMB substrate was added and incubated for approximately five minutes at room temperature. The reaction was stopped with 50 μl of 3.0 M hydrochloric acid and absorbance was read immediately using a DYNEX ® plate reader at 450 nm.
IC50 values were calculated for each variant and relative IC50 values were calculated by dividing the IC50 of the humanized variant by that of the chimeric antibody assayed on the same plate (Table 11).

[9] = molecular target: T1, Homo sapiens factor Bb protein; experiment: BLI, multi-cycle kinetics, antibody loaded on anti-hIgG Fc sensors, human factor Bb in solution (100 nM to 0.14 nM), 1:1 fit
Experimental: Multicycle kinetic analysis was performed on CHO and HEK-produced VH6/VK7-IgG4v2 antibodies using biolayer interferometry. Antibodies were diluted to 10 μg/mL in PBS+ 0.02%. Tween20, 0.1% BSA, 0.05% sodium azide and loaded onto anti-hIgG Fc sensors (pre-equilibrated in the same buffer) for 90 seconds followed by a 60-minute baseline in buffer. Binding of a concentration series of human factor Bb (Complement Technologies, #A155), ranging from 100 nM to 0.14 nM in 2-fold dilutions, was measured in a 300 second association in the same buffer, followed by a 300 second dissociation step.

[10] = molecular target: T1, Homo sapiens factor Bb protein; experiment: SPR single cycle kinetics; against cynomolgus monkey factor Bb
Experimental: (§5) The ability of VH4/VK6 and VH6/VK7 to bind to zymogen factor B and factor Bb from both human and cynomolgus monkey was determined by surface plasmon resonance using a Biacore T200. Human factor B and factor Bb were purchased from Comptech and cynomolgus monkey factor B and factor Bb were purified in-house. Briefly, the monoclonal antibodies were captured on a Biacore Series S Protein A chip in HBSP+ (10 mM HEPES, 150 mM NaCl, 0.05% P20 pH 7.4) at a flow rate of 30 μL/min. A five-point concentration series of each analyte was tested for binding using single cycle kinetics with a contact time of 180 seconds per concentration followed by a 600 sec dissociation at 25° C. and a flow rate of […]. Both human and cynomolgus monkey factor B started at a concentration of 500 nM followed by 2-fold dilutions, while human and cynomolgus monkey factor Bb started at concentrations of 30 nM and 150 nM, respectively, followed by 2-fold dilutions. Data were analyzed using the Biacore evaluation software using a 1:1 binding model. […] Binding to human or cynomolgus monkey factor B was barely detectable and the small signal that was observed was dominated by non-specific binding.

[11] = molecular target: T1, Homo sapiens factor Bb protein; experiment: SPR single cycle kinetics, antibody on Protein A chip, antigen analyte
Experimental: as §5

T1 sequence (P00751 260-764 limits assumed): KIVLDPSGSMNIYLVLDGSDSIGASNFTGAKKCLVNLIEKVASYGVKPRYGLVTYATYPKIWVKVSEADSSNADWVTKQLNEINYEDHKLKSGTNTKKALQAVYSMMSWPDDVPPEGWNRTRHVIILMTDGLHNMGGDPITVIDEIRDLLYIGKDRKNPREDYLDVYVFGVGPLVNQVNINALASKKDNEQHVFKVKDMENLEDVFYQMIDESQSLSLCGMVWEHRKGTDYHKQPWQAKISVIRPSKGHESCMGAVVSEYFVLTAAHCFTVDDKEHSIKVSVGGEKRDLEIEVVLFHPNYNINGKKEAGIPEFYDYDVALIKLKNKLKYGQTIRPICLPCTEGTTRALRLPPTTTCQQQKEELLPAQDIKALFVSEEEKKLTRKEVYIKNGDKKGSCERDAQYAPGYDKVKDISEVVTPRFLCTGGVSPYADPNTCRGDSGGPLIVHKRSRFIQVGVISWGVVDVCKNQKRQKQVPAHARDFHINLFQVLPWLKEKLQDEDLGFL

| Binder | AP Assay IC50 [1] | Relative KD [2] | Kd [3] | Kd [4] | Relative KD [5] | Kd [6] | koff [6] | kon [6] | Kd [7] | koff [7] | kon [7] | IC50 [8] | Kd [9] | fold higher affinity for human factor Bb compared to cynomolgus monkey factor Bb [10] | Kd [11] | koff [11] | kon [11] |
| --- | --- | --- | --- | --- | --- | --- | --- | --- | --- | --- | --- | --- | --- | --- | --- | --- | --- |
| VH4/Vκ6-IgG4v1 (antibody, also called VH4/VK6; V46/VK6-IgG4v1) heavy: not shown light: DIVMTQSPSFLSASVGDRVTITCKASQDVGTAVAWYQQKPGKAPKLLIYWASTRHTGVPDRFTGSGSGTDFTLTISSLQSEDFAVYFCHQHSSNPLTFGQGTKLEIKRTVAAPSVFIFPPSDEQLKSGTASVVCLLNNFYPREAKVQWKVDNALQSGNSQESVTEQDSKDSTYSLSSTLTLSKADYEKHKVYACEVTHQGLSSPVTKSFNRGEC | 22 nM | 1.25 | 1.6 nM | 1.6 nM | 1.08 | 2.14 nM | 0.000805 s⁻¹ | 376000 M⁻¹ s⁻¹ | 2.22 nM | 0.000859 s⁻¹ | 387000 M⁻¹ s⁻¹ | 1.02 nM | – | – | – | – | – |
| VH6/Vk7-IgG4v2-CHO (antibody) heavy chain: not shown light chain: DIQMTQSPSTLSASVGDRVTITCKASQDVGTAVAWYQQKPGKAPKLLIYWASTRHTGVPDRFSGSGSGTDFTLTISSLQAEDFAVYFCHQHSSNPLTFGQGTKLEIKRTVAAPSVFIFPPSDEQLKSGTASVVCLLNNFYPREAKVQWKVDNALQSGNSQESVTEQDSKDSTYSLSSTLTLSKADYEKHKVYACEVTHQGLSSPVTKSFNRGEC | – | – | – | – | – | – | – | – | – | – | – | – | 2.7 nM | – | – | – | – |
| VH4/Vκ6-IgG4v2 (antibody, also called VH4/VK6-IgG4v2) heavy: not shown light: DIVMTQSPSFLSASVGDRVTITCKASQDVGTAVAWYQQKPGKAPKLLIYWASTRHTGVPDRFTGSGSGTDFTLTISSLQSEDFAVYFCHQHSSNPLTFGQGTKLEIKRTVAAPSVFIFPPSDEQLKSGTASVVCLLNNFYPREAKVQWKVDNALQSGNSQESVTEQDSKDSTYSLSSTLTLSKADYEKHKVYACEVTHQGLSSPVTKSFNRGEC | – | – | – | 1.6 nM | – | – | – | – | – | – | – | – | – | ~10 fold | 2.26 nM | 0.000925 s⁻¹ | 410000 M⁻¹ s⁻¹ |
| VH6/Vκ7-IgG4v1 (antibody, also called VH6/VK7; VH6/VK7-IgG4v1) heavy: not shown light: DIQMTQSPSTLSASVGDRVTITCKASQDVGTAVAWYQQKPGKAPKLLIYWASTRHTGVPDRFSGSGSGTDFTLTISSLQAEDFAVYFCHQHSSNPLTFGQGTKLEIKRTVAAPSVFIFPPSDEQLKSGTASVVCLLNNFYPREAKVQWKVDNALQSGNSQESVTEQDSKDSTYSLSSTLTLSKADYEKHKVYACEVTHQGLSSPVTKSFNRGEC | 21 nM | 1.98 | 1.9 nM | 1.7 nM | 2.98 | 5.7 nM | 0.00124 s⁻¹ | 218000 M⁻¹ s⁻¹ | 3.51 nM | 0.00221 s⁻¹ | 630000 M⁻¹ s⁻¹ | 0.82 nM | – | – | – | – | – |
